{"source": "paper PMC3425481", "about": "“Differential Regulation of Smad3 and of the Type II Transforming Growth Factor-β Receptor in Mitosis: Implications for Signaling” (PLoS ONE, 2012)", "binders": {"B1": {"name": "Ski (natural protein, human (endogenous in ES-2), UniProt P12755 1-728, looked up)", "chain": "MEAAAGGRGCFQPHPGLQKTLEQFHLSSMSSLGGPAAFSARWAQEAYKKESAKEAGAAAVPAPVPAATEPPPVLHLPAIQPPPPVLPGPFFMPSDRSTERCETVLEGETISCFVVGGEKRLCLPQILNSVLRDFSLQQINAVCDELHIYCSRCTADQLEILKVMGILPFSAPSCGLITKTDAERLCNALLYGGAYPPPCKKELAASLALGLELSERSVRVYHECFGKCKGLLVPELYSSPSAACIQCLDCRLMYPPHKFVVHSHKALENRTCHWGFDSANWRAYILLSQDYTGKEEQARLGRCLDDVKEKFDYGNKYKRRVPRVSSEPPASIRPKTDDTSSQSPAPSEKDKPSSWLRTLAGSSNKSLGCVHPRQRLSAFRPWSPAVSASEKELSPHLPALIRDSFYSYKSFETAVAPNVALAPPAQQKVVSSPPCAAAVSRAPEPLATCTQPRKRKLTVDTPGAPETLAPVAAPEEDKDSEAEVEVESREEFTSSLSSLSSPSFTSSSSAKDLGSPGARALPSAVPDAAAPADAPSGLEAELEHLRQALEGGLDTKEAKEKFLHEVVKMRVKQEEKLSAALQAKRSLHQELEFLRVAKKEKLREATEAKRNLRKEIERLRAENEKKMKEANESRLRLKRELEQARQARVCDKGCEAGRLRAKYSAQIEDLQVKLQHAEADREQLRADLLREREAREHLEKVVKELQEQLWPRARPEAAGSEGAAELEP", "notes": "Ski, endogenous in human ES-2 ovarian cancer cells, detected with α-Ski (Santa Cruz); source: endogenous, ES-2 cell lysate"}}, "biological_target": "T1, Smad3 phosphorylated at the C-terminus (pSmad3C) (human (endogenous in ES-2), UniProt P84022 1-425, phospho-serines 423/425 (C-terminal SSXS motif))", "T1 construct": "Smad3, endogenous in human ES-2 ovarian cancer cells, precipitated with α-pSmad3C (raised against phospho-serines 423/425 of Smad3); The α-pSmad3C antibody cross-reacts with C-terminus phosphorylated Smad2; In 2ME2-arrested cells Smad3 is also phosphorylated on threonine 179, but pSmad3(179) was detected inconsistently in the immunoprecipitates; also called C-terminally phosphorylated Smad3; …", "T1 sequence (P84022 whole entry)": "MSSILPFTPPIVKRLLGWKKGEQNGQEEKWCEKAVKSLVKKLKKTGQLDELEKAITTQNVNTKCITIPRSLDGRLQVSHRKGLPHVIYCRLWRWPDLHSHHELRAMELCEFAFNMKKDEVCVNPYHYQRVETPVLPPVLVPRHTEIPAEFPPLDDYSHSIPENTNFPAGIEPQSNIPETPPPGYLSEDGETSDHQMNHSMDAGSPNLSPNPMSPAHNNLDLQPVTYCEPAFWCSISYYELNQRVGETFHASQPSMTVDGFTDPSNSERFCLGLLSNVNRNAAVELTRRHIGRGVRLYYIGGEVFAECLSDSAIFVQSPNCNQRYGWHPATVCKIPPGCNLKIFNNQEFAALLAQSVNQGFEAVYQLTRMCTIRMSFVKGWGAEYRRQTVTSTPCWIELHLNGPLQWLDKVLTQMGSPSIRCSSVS", "experiment": "co-IP; immunoprecipitation with α-pSmad3C (overnight, 4°C) and protein A-sepharose from lysates of 10^8 ES-2 cells treated with TGF-β1 (1 h) or 2ME2 (16 h); 420 mM NaCl, 50 mM Hepes pH 7.8, 5 mM EDTA, 1% NP-40, 3% DTT; blots with α-Ski, α-Smurf2, α-tSmad2/3; control: sepharose beads alone", "settings": "partners not purified", "data": [{"binder": "B1", "values": [{"measurement": "fold increase of the Ski/tSmad3 ratio in the anti-pSmad3C immunoprecipitate, 2ME2-arrested cells relative to TGF-β1-activated cells", "value": "7.7 ± 1.7", "unit": "fold"}]}]}
